The source of these data is patent US20140087995A1 (published 2014).

Numbered stars: 1 amine (or outer) side, 2 acyl side, 3 side chain; on linkers, the order of the positions; unused ones are H or OH. Bridge positions count the residues as written; N and C are the ends. Side chains are listed from the residue outwards. Ends that are not written are not given here. * marks the point of attachment. C20 diacid = O=C(O)CCCCCCCCCCCCCCCCCCC(=O)*; γGlu = O=C(O)[C@H](CCC(=O)[*:2])N[*:1]; AEEA = NCCOCCOCC(=O)O

For assay [1], the target named is T1, rat amylin receptor (rat calcitonin receptor + rat RAMP 3) (rat, UniProt P32214 25-516; Q9JJ73 23-147).
T1 construct: whole, on cells; Membranes of transiently transfected BHK tk'ts 13 cells; also called rAmylin-R; rat amylin 3(a) receptor
T1 sequence (looked up) 1: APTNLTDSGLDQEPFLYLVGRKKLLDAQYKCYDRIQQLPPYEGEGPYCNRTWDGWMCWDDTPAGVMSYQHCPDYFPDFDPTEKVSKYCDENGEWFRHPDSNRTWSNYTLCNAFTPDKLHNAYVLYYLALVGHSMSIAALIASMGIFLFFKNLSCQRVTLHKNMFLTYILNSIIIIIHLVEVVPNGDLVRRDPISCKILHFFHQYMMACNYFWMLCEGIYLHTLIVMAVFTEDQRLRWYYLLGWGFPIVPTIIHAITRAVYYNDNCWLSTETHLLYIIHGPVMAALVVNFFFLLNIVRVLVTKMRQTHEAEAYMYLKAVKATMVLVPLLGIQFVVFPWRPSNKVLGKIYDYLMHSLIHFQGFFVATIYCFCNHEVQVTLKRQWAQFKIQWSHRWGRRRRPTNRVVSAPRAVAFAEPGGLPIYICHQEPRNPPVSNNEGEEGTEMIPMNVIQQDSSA
T1 sequence (looked up) 2: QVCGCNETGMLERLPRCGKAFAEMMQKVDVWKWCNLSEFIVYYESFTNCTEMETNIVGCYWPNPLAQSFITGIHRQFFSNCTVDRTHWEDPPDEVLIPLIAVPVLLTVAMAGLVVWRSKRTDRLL
Briefly: SPA competition with 125I-rat amylin on membranes of BHK tk'ts 13 cells with rat calcitonin receptor + rat RAMP3 (Assay VI).

In assay [2] the target is T2, rat calcitonin receptor (rat, UniProt P32214 25-516).
T2 construct: whole, on cells; Membranes of transiently transfected BHK tk'ts 13 cells; also called rCTR; rat calcitonin (a) receptor
T2 sequence (looked up): T1 sequence (looked up) 1
Briefly: SPA competition with 125I-calcitonin on membranes of BHK tk'ts 13 cells with rat calcitonin receptor (Assay VIII).

For assay [3], the target named is T2, rat calcitonin receptor. Briefly: ratio of IC50 on rat calcitonin receptor to IC50 on rat amylin receptor (reference m40).
Assay [4] addresses T3, human calcitonin receptor (human, UniProt P30988 25-474).
T3 construct: whole, on cells; Membranes of stably transfected cells; also called hCTR; hCT
T3 sequence (looked up): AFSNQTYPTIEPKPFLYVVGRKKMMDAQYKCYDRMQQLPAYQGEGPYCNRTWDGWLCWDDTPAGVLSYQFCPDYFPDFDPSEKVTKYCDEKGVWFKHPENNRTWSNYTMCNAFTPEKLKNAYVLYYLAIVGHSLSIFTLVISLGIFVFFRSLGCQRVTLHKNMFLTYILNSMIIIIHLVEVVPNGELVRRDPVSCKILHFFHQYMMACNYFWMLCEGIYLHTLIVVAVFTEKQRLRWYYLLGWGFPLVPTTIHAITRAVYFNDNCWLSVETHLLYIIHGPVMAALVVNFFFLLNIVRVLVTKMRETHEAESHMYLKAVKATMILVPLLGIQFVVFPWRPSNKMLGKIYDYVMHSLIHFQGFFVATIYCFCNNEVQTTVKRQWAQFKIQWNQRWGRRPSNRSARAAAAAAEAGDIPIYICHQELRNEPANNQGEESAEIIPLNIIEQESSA
Briefly: ratio of IC50 on human calcitonin receptor to IC50 on human amylin receptor (reference m42), SPA competition. The method, then: The resulting pellet was resuspended, homogenized and centrifuged (20.000 rpm, 15 min) in a buffer containing 20 mM Na-HEPES and 0.1 mM EDTA (pH 7.4, buffer 2). The resulting pellet was resuspended in buffer 2 and protein concentration was measured (BCA protein Assay, Pierce). The homogenate was kept cold during the whole procedure. The membranes were kept at −80° C. until use. The assay was performed in a 384 well Optiplate (PerkinElmer) in a total volume of 40 ul. Membranes were mixed with SPA beads. Final concentration of membranes 35 ng/μL final and SPA beads was 0.05 mg/well. Test-compounds were dissolved in DMSO and further diluted in assay buffer (50 mM Hepes, pH 7.4, 1 mM CaCl2, 5 mM MgCl₂, 0.1% OA and 0.02% Tween20). […] The final mixture was incubated with shaking at 400 rpm for 120 min at 25° C. prior to centrifugation (1500 rpm, 10 min). Samples were analyzed on TopCounter™ (Packard). The IC₅₀ was calculated using (one site binding competition analysis) GraphPad Prism5 as a measure of receptor affinity.
Membranes were prepared in the following way; the cells were rinsed with PBS and incubated with Versene for approximately 5 min before harvesting. The cells were flushed with PBS and the cell-suspension was centrifuged for 5 min at 1000 rpm. Cells were homogenized (Ultrathurrax) in a buffer containing 20 mM Na-HEPES and 10 mM EDTA (pH 7.4) and centrifuged at 20.000 rpm for 15 min. The resulting pellet was resuspended, homogenized and centrifuged (20.000 rpm, 15 min) in a buffer containing 20 mM Na-HEPES and 0.1 mM EDTA (pH 7.4, buffer 2). The resulting pellet was resuspended in buffer 2 and protein concentration was measured (BCA protein Assay, Pierce). The homogenate was kept cold during the whole procedure. The membranes were kept at −80° C. until use. Assay was performed in a 384 well Optiplate (PerkinElmer) in a total volume of 40 ul. Membranes were mixed with SPA beads.

B1: N^ε1-[(4S)-4-carboxy-4-[[(4S)-4-carboxy-4-(19-carboxynonadecanoylamino)butanoyl]amino]butanoyl]-[Glu14,Arg17,Pro21,Pro27,Pro34,Glu35]-h-amylin (peptide)
peptide: K([γGlu-γGlu-C20 diacid])CNTATCATQRLAEFLRHSSPNFGAIPSSTNVGPETY-NH2
modifications: disulfide 2-7 (inferred)
notes: Synthetic acylated analogue of human amylin
Broadly, the IC50 is the point on the concentration scale where inhibition reaches its midpoint. Take B1: the half-inhibitory concentration (IC50) in assay [1] turned out to be 0.182 nM; with rat calcitonin receptor [2], 16.1 nM. Besides, the “Ratio rCT/rAmylin binding” value with rat calcitonin receptor [3] is 88.5. In addition, the “Ratio hCT/hAmylin binding” value in assay [4] was 17.6.

B2: N^ε1-[2-[2-[2-(19-carboxynonadecanoylamino)ethoxy]ethoxy]acetyl]-[Arg17,Pro21,Pro27,His34]-h-amylin (peptide)
peptide: K([AEEA-C20 diacid])CNTATCATQRLANFLRHSSPNFGAIPSSTNVGHNTY-NH2
modifications: disulfide 2-7; N-terminus assumed
SMILES: CC[C@H](C)[C@H](NC(=O)[C@H](C)NC(=O)CNC(=O)[C@H](Cc1ccccc1)NC(=O)[C@H](CC(N)=O)NC(=O)[C@@H]1CCCN1C(=O)[C@H](CO)NC(=O)[C@H](CO)NC(=O)[C@H](Cc1c[nH]cn1)NC(=O)[C@H](CCCNC(=N)N)NC(=O)[C@H](CC(C)C)NC(=O)[C@H](Cc1ccccc1)NC(=O)[C@H](CC(N)=O)NC(=O)[C@H](C)NC(=O)[C@H](CC(C)C)NC(=O)[C@H](CCCNC(=N)N)NC(=O)[C@H](CCC(N)=O)NC(=O)[C@@H](NC(=O)[C@H](C)NC(=O)[C@@H]1CSSC[C@H](NC(=O)[C@@H](N)CCCCNC(=O)COCCOCCNC(=O)CCCCCCCCCCCCCCCCCCC(=O)O)C(=O)N[C@@H](CC(N)=O)C(=O)N[C@@H]([C@@H](C)O)C(=O)N[C@@H](C)C(=O)N[C@@H]([C@@H](C)O)C(=O)N1)[C@@H](C)O)C(=O)N1CCC[C@H]1C(=O)N[C@@H](CO)C(=O)N[C@@H](CO)C(=O)N[C@H](C(=O)N[C@@H](CC(N)=O)C(=O)N[C@H](C(=O)NCC(=O)N[C@@H](Cc1c[nH]cn1)C(=O)N[C@@H](CC(N)=O)C(=O)N[C@H](C(=O)N[C@@H](Cc1ccc(O)cc1)C(N)=O)[C@@H](C)O)C(C)C)[C@@H](C)O
notes: Synthetic acylated analogue of human amylin; also called compound 91
Regarding B2, the figures for the half-maximal inhibitory concentration (IC50) (in assay [1]; in the assay with rat calcitonin receptor [2]) were 0.386 nM and 29.4 nM, respectively. In addition, the “Ratio rCT/rAmylin binding” value with rat calcitonin receptor [3] was 76.3. Besides, the “Ratio hCT/hAmylin binding” value in assay [4] turned out to be 101.

B3: N^ε1-[2-[2-[2-[[2-[2-[2-[[(4S)-4-carboxy-4-(19-carboxynonadecanoylamino)butanoyl]amino]ethoxy]ethoxy]acetyl]amino]ethoxy]ethoxy]acetyl]-[Arg17,Pro21,Pro27,Arg34 … (peptide)
peptide: K([AEEA-AEEA-γGlu-C20 diacid])CNTATCATQRLANFLRHSSPNFGAIPSSTNVGRNTY-NH2
modifications: disulfide 2-7; N-terminus assumed
SMILES: CC[C@H](C)[C@H](NC(=O)[C@H](C)NC(=O)CNC(=O)[C@H](Cc1ccccc1)NC(=O)[C@H](CC(N)=O)NC(=O)[C@@H]1CCCN1C(=O)[C@H](CO)NC(=O)[C@H](CO)NC(=O)[C@H](Cc1c[nH]cn1)NC(=O)[C@H](CCCNC(=N)N)NC(=O)[C@H](CC(C)C)NC(=O)[C@H](Cc1ccccc1)NC(=O)[C@H](CC(N)=O)NC(=O)[C@H](C)NC(=O)[C@H](CC(C)C)NC(=O)[C@H](CCCNC(=N)N)NC(=O)[C@H](CCC(N)=O)NC(=O)[C@@H](NC(=O)[C@H](C)NC(=O)[C@@H]1CSSC[C@H](NC(=O)[C@@H](N)CCCCNC(=O)COCCOCCNC(=O)COCCOCCNC(=O)CC[C@H](NC(=O)CCCCCCCCCCCCCCCCCCC(=O)O)C(=O)O)C(=O)N[C@@H](CC(N)=O)C(=O)N[C@@H]([C@@H](C)O)C(=O)N[C@@H](C)C(=O)N[C@@H]([C@@H](C)O)C(=O)N1)[C@@H](C)O)C(=O)N1CCC[C@H]1C(=O)N[C@@H](CO)C(=O)N[C@@H](CO)C(=O)N[C@H](C(=O)N[C@@H](CC(N)=O)C(=O)N[C@H](C(=O)NCC(=O)N[C@@H](CCCNC(=N)N)C(=O)N[C@@H](CC(N)=O)C(=O)N[C@H](C(=O)N[C@@H](Cc1ccc(O)cc1)C(N)=O)[C@@H](C)O)C(C)C)[C@@H](C)O
notes: Synthetic acylated analogue of human amylin; also called compound 95
In the case of B3, the 50% inhibitory concentration (IC50) in assay [1] turned out to be 5.45 nM; with rat calcitonin receptor [2], 388 nM. In addition, the “Ratio rCT/rAmylin binding” value with rat calcitonin receptor [3] amounted to 71.3. Further, in assay [4], the “Ratio hCT/hAmylin binding” value stood at 63.4.

B4: N^ε1-[2-[2-[2-(19-carboxynonadecanoylamino)ethoxy]ethoxy]acetyl]-[His14,Arg17,Pro21,Pro27]-h-amylin (peptide)
peptide: K([AEEA-C20 diacid])CNTATCATQRLAHFLRHSSPNFGAIPSSTNVGSNTY-NH2
modifications: disulfide 2-7; N-terminus assumed
SMILES: CC[C@H](C)[C@H](NC(=O)[C@H](C)NC(=O)CNC(=O)[C@H](Cc1ccccc1)NC(=O)[C@H](CC(N)=O)NC(=O)[C@@H]1CCCN1C(=O)[C@H](CO)NC(=O)[C@H](CO)NC(=O)[C@H](Cc1c[nH]cn1)NC(=O)[C@H](CCCNC(=N)N)NC(=O)[C@H](CC(C)C)NC(=O)[C@H](Cc1ccccc1)NC(=O)[C@H](Cc1c[nH]cn1)NC(=O)[C@H](C)NC(=O)[C@H](CC(C)C)NC(=O)[C@H](CCCNC(=N)N)NC(=O)[C@H](CCC(N)=O)NC(=O)[C@@H](NC(=O)[C@H](C)NC(=O)[C@@H]1CSSC[C@H](NC(=O)[C@@H](N)CCCCNC(=O)COCCOCCNC(=O)CCCCCCCCCCCCCCCCCCC(=O)O)C(=O)N[C@@H](CC(N)=O)C(=O)N[C@@H]([C@@H](C)O)C(=O)N[C@@H](C)C(=O)N[C@@H]([C@@H](C)O)C(=O)N1)[C@@H](C)O)C(=O)N1CCC[C@H]1C(=O)N[C@@H](CO)C(=O)N[C@@H](CO)C(=O)N[C@H](C(=O)N[C@@H](CC(N)=O)C(=O)N[C@H](C(=O)NCC(=O)N[C@@H](CO)C(=O)N[C@@H](CC(N)=O)C(=O)N[C@H](C(=O)N[C@@H](Cc1ccc(O)cc1)C(N)=O)[C@@H](C)O)C(C)C)[C@@H](C)O
notes: Synthetic acylated analogue of human amylin; also called compound 90
As to B4, the results for the IC50 (in assay [1]; with rat calcitonin receptor [2]) were 0.246 nM and 18.2 nM, respectively. Moreover, the “Ratio rCT/rAmylin binding” value with rat calcitonin receptor [3] was determined as 74.1. In addition, in assay [4], the “Ratio hCT/hAmylin binding” value worked out at 42.2.
